Source: patent US20140287419A1, “Compositions Having Dicamba Decarboxylase Activity and Methods of Use” (priority 2013, published 2014)
Entries after “also recorded” stand apart in the source; their conditions may differ.

Experiments:
[1] = Detection of 4-chloro-3-methoxy phenol product by LC-MS/MS; format: biochemical; settings: purified protein
Method: The decarboxylated and chloro hydrolyzed product, 4-chloro-3-methoxy phenol (FIG. 1D), is measured using a LC-MS/MS analytical procedure. […] 10 ul is removed from the reaction mixture and mixed with 90 ul pre-chilled methanol followed by centrifugation at 14,000 rpm for 15 min at 4° C. 10 ul of the supernatant is then transferred into 170 ul ddH2O to achieve 5% methanol solution for injection. 50 ul of the prepared sample is injected into a 4000 Q Trap LC-MS/MS system for sample analysis. LC-MS/MS parameters are: Mobile Phase A, 2 mM ammonium acetate in water; Mobile Phase B, 2 mM ammonium acetate in methanol; Column, Aquasil, 100×2.1 mm, 3 μm, C18 column; Flow Rate, 0.6 ml/min. The MS/MS fragment 157/142 which is common to 4-chloro-3-methoxy phenol, 2-chloro-5-methoxy phenol, and 3-chloro-5-methoxy phenol is monitored at a retention time of 2.88 min.

[2] = 14C assay with purified protein (14CO2 captured on Ca(OH)2 filter paper); format: biochemical; settings: [14C]-carboxyl-labeled dicamba
[3] = Dicamba decarboxylation activity of computationally designed protein variants; settings: native protein or designed variant versus parent
[4] = Detection of 2,5-DCP product by GC/MS; format: biochemical; settings: purified protein
Method: The decarboxylated and demethylated product of dicamba, 2,5-dichloro phenol or 2,5-DCP (FIG. 1E) is measured using a GC/MS analytical procedure with either liquid injection after liquid/liquid extraction using toluene as the extraction solvent or gas injection using head space method. The head space sample analysis is carried out on an Agilent GC/MS system with a 6890A GC, a 5973N MSD and a CTC CombiPAL auto-sampler or with a 7890A GC, a 5975C MSD and an Agilent GC Sampler 80 auto-sampler with Phenomenex ZB-MultiResidue-1 column (30 m length, 0.25 mm diameter, 0.25 um film) or equivalent. GC/MS parameters are: GC inlet temperature, 200° C.; Carry gas, helium in constant flow mode (1.2 mL/min); Oven temperature program, 70° C. for 1 min and then ramp to 275° C. at 40° C./min. […] The reaction vial is transferred to a agitator for incubation at 90° C. for 4 min at 500 rpm. With a syringe preheated at 110° C., 1000 uL of head space is injected with sample fill speed at 100 uL/sec. A 2-mm diameter liner is used in sample inlet. The MS data acquisition is done in SIM (selected ion monitoring) mode. The positive ion at M/Z 162 for the molecular ion of 2,-5-DCP is monitored at retention time of 4.06 min. Solvent delay for MS acquisition is set at 3 min. GC/MS parameters for liquid sample analysis are the same as those for head space analysis, except that the volume of liquid injection is 1 uL.

[5] = 14C assay with IPTG-induced recombinant E. coli cells (14CO2 capture from [14C]-carboxyl-labeled dicamba); settings: E. coli cell assay, 108 sequences tested

Row | Molecule | 4-chloro-3-methoxy phenol product [1] | CO2 product [2] | Dicamba Decarboxylase Activity [3] | 2,5-DCP product [4] | decarboxylation activity of dicamba [5]
1 | SEQ ID NO:115: Design variant of SEQ ID NO: 1 (protein, Dicamba decarboxylase variant clone DC.4.161) MAQGKVALEEHFAIPDTLTTYTTSGDYEKELKHRLLDIQDTRLKLMDAHGIETMILSLNAPGVQAIPDRRKAIEIARRANDVLAEECAKRPDRFLAFAALPLQDPDAATEELQRCVNDLGFVGALVNGFSQEGDGQTPLYYDLPQYRPFWGEVEKLDVPFYLHPRNPLPQDSRIYDGHPWLLGPTWAFAQETAVHALRLMASGLFDEHPRLNIILGHMGEGLPYMMWRIDHRNAWVKTPPRYPAKRRFMDYFNENFHITTSGNFRTQTLIDAILEIGADRILFSTDWPFENIDHASDWFNATSIAEADRVKIGRTNARRLFKLDGA | detected | detected | displays an increase in dicamba decarboxylase activity | detected | –
2 | SEQ ID NO:108: hypothetical protein SAV2580, Staphylococcus aureus subsp. aureus Mu50 (protein, listed as Staphylococcus aureus) MAKSITFEEHYVIEDIQKETMNAISADPKGVPMKVMLEGLEKKTGFTNADELSHHDERIQFMNNQDVQIQVLSYGNGSPSNLVGQKAIELCQKANDQLANYIAQYPNRFVGFATLPINEPEAAAREFERCINDLGFKGALIMGRAQDGFLDQDKYDIIFKTAENLDVPIYLHPAPVNSDIYQSYYKGNYPEVTAATFACFGYGWHIDVGIHAIHLVLSGIFDRYPKLNMIIGHWGEFIPFFLERMDEALFAEHLNHSVSYYFKNSFYITPSGMLTKPQFDLVKKEVGIDRILYAADYPYIEPEKLGVFLDELGLTDEEKEKISYTNGAKLLGLSSNN | detected | detected | – | detected | showed decarboxylation activity of dicamba
3 | SEQ ID NO:114: Design variant of SEQ ID NO: 1 (protein, Dicamba decarboxylase variant clone DC.4.116) MAQGKVALEEHFAIPETLQDSAGAVPGDYWKELQHRLLDIQDTRLKLMDAHGIETMILSLNAPAVQAIPDRRKAIEIARRANDVLAEECAKRPDRFLAFAALPLQDPDAATEELQRCVNDLGFVGALVNGFSQEGDGQTPLYYDLPQYRPFWGEVEKLDVPFYLHPRNPLPQDSRIYDGHPWLLGPTWAFAQETAVHALRLMASGLFDEHPRLNIILGHMGEGLPYMMWRIDHRVAWVKLPPRYPAKRRFMDYFNENFHITTSGNFRTQTLIDAILEIGADRILFSTDWPFENIDHASDWFNATSIAEADRVKIGRTNARRLFKLDGA | detected | detected | displays an increase in dicamba decarboxylase activity | detected | –
4 | SEQ ID NO:110: Design variant of SEQ ID NO: 1 (protein, Dicamba decarboxylase variant clone DC.4.111) MAQGKVALEEHFAIPETLQDSMGFVPGDYWKELMHRLLDIQDTRLKLMDAHGIETMILSLNAPAVQAIPDRRKAIEIARRANDVLAEECAKRPDRFLAFAALPLQDPDAATEELQRCVNDLGFVGALVNGFSQEGDGQTPLYYDLPQYRPFWGEVEKLDVPFYLHPRNPLPQDSRIYDGHPWLLGPTWAFAQETAVHALRLMASGLFDEHPRLNIILGHMGEGLPYMMWRIDHRMAWVKLPPRYPAKRRFMDYFNENFHITTSGNFRTQTLIDAILEIGADRILFSTDWPFENIDHASDWFNATSIAEADRVKIGRTNARRLFKLDGA | detected | detected | displays an increase in dicamba decarboxylase activity | detected | –
5 | SEQ ID NO:109: Design variant of SEQ ID NO: 1; designed mutation N235V (protein, Dicamba decarboxylase variant clone DC.4.032, designed mutation N235V) MAQGKVALEEHFAIPETLQDSAGFVPGDYWKELQHRLLDIQDTRLKLMDAHGIETMILSLNAPAVQAIPDRRKAIEIARRANDVLAEECAKRPDRFLAFAALPLQDPDAATEELQRCVNDLGFVGALVNGFSQEGDGQTPLYYDLPQYRPFWGEVEKLDVPFYLHPRNPLPQDSRIYDGHPWLLGPTWAFAQETAVHALRLMASGLFDEHPRLNIILGHMGEGLPYMMWRIDHRVAWVKLPPRYPAKRRFMDYFNENFHITTSGNFRTQTLIDAILEIGADRILFSTDWPFENIDHASDWFNATSIAEADRVKIGRTNARRLFKLDGA | detected | detected | more active than their parent sequence; also recorded: displays an increase in dicamba decarboxylase activity | detected | –
6 | SEQ ID NO:116: Design variant of SEQ ID NO: 41; new 35 amino acid N-terminal loop (protein, Dicamba decarboxylase variant clone DC.30.007, new 35 amino acid N-terminal loop) MAQGKVALEEHFAIPETLQDAAGFVPGDYWKELQHRLLDIQDRRVRLMDEHGIETMILSLNAPAVQAIADSTRANETARRANDFLAEQVAKQPTRFRGFAALPMQDPELAARELERCVKELGFVGALVNGFSQDNRSAVPLYYDMAQYWPFWETVQALDVPFYLHPRNPLPSDARIYDGHAWLLGPTWAFGQETAVHALRLMGSGLFDKYPALKIILGHMGEGLPYSMWRIDHRNAWIKTTPKYPAKRKIVDYFNENFYLTTSGNFRTQTLIDAILEIGADRILFSTDWPFENIDHAADWFENTSISEADRKKIGWGNAQNLFKLNR | detected | detected | displays an increase in dicamba decarboxylase activity | detected | –
7 | SEQ ID NO:32: o-pyrocatechuate decarboxylase, Streptomyces violaceusniger Tu 4113 (protein, Streptomyces violaceusniger) MARIIAIEEHFLDLDIARASRPEAERLSPAFAAAYGAGQGYNYSPAPEVLLDLEEGRVADMDAHGISMQVLSSLSTQQLPADVAVELVRKVNDRAAAAVAARPDRFAAFAALPTTVPEAAADELDRAVGELGFVGSMINGRTGDAFLDAPRFDAVLRRSAELRVPVYLHPGVPPVETSRSNYEGGLDPIVTARLQTSAWGWHVETGIHFLHLVLAGVFDRYPDLQVILGHWGEMVPFFLERIEEALPQQITHLDRPVGAYFRENAHITPSGMFSQAQLQFCVETVGIERIMFSVDYPFLGNDGAEAFLRQANLPPLATEKIAHLNAERLLALPS | detected | detected | – | detected | showed decarboxylation activity of dicamba
